Results taken from PMC4460183, “Catalytic and hydrodynamic properties of styrene monooxygenases from Rhodococcus opacus 1CP are modulated by cofactor binding” (AMB Express, 2015).
Several values for one entry are separate records, joined by “and”; a condition that tells them apart may be missing. Equal entries are not always repeated.

What was measured:
[1] = target: StyA2B self-sufficient styrene monooxygenase from Rhodococcus opacus 1CP (Rhodococcus opacus 1CP) (UniProt C7ACG1); experiment: SEC; analytical gel filtration, Superdex 200 HR 10/30, 22°C, 0.6 mL/min, 10 mM Tris-HCl pH 7.2, 500 mM NaCl; 100 µL of protein (1.95 mg/mL StyA1, 2.17 mg/mL StyA2B, 11.45 mg/mL StyA); apo-enzyme, no FAD
[2] = target: StyA2B self-sufficient styrene monooxygenase from Rhodococcus opacus 1CP (Rhodococcus opacus 1CP) (UniProt C7ACG1); experiment: SEC; analytical gel filtration, Superdex 200 HR 10/30, 22°C, 10 mM Tris-HCl pH 7.2, 500 mM NaCl; reduced holoenzyme, 12.7 µM FAD and 1 mM sodium dithionite, anaerobic buffer
[3] = target: StyA2B self-sufficient styrene monooxygenase from Rhodococcus opacus 1CP (Rhodococcus opacus 1CP) (UniProt C7ACG1); experiment: SEC; analytical gel filtration, Superdex 200 HR 10/30, 22°C, 10 mM Tris-HCl pH 7.2, 500 mM NaCl; oxidized holoenzyme, 12.7 µM FAD in buffer and sample
[4] = target: StyA1 styrene monooxygenase from Rhodococcus opacus 1CP (Rhodococcus opacus 1CP) (UniProt C7ACG0); experiment: SEC; analytical gel filtration, Superdex 200 HR 10/30, 22°C, 0.6 mL/min, 10 mM Tris-HCl pH 7.2, 500 mM NaCl; 100 µL of protein (1.95 mg/mL StyA1, 2.17 mg/mL StyA2B, 11.45 mg/mL StyA); apo-enzyme, no FAD
[5] = target: StyA1 styrene monooxygenase from Rhodococcus opacus 1CP (Rhodococcus opacus 1CP) (UniProt C7ACG0); experiment: SEC; analytical gel filtration, Superdex 200 HR 10/30, 22°C, 10 mM Tris-HCl pH 7.2, 500 mM NaCl; reduced holoenzyme, 12.7 µM FAD and 1 mM sodium dithionite, anaerobic buffer
[6] = target: StyA1 styrene monooxygenase from Rhodococcus opacus 1CP (Rhodococcus opacus 1CP) (UniProt C7ACG0); experiment: SEC; analytical gel filtration, Superdex 200 HR 10/30, 22°C, 10 mM Tris-HCl pH 7.2, 500 mM NaCl; oxidized holoenzyme, 12.7 µM FAD in buffer and sample
StyA = target: T1, StyA (Rhodococcus opacus, UniProt A0A076JVU4); experiment: HPLC of phenyl vinyl sulfoxide formed; type: biochemical; conditions: StyB of P. fluorescens ST (threefold excess), FAD, NADH regeneration by formate dehydrogenase, catalase
T1 construct: full length, 427 residues, 46,580 Da calculated; apo form purified; monomer; P. fluorescens ST StyB as coupling reductase in oxygenase assays

StyA1 = target: T2, StyA1 (Rhodococcus opacus, UniProt C7ACG0); experiment: analytical gel filtration, oligomer shift; type: binding; conditions: 12.7 µM FAD, no dithionite; 10 mM Tris-HCl pH 7.2, 500 mM NaCl, 22 °C
T2 construct: N-terminal His10 tag kept, E. coli BL21; apo form purified; monomer-dimer, dimer with reduced FAD; oxygenase assays with P. fluorescens ST StyB as coupling reductase
T2 sequence (C7ACG0 entry or part of it): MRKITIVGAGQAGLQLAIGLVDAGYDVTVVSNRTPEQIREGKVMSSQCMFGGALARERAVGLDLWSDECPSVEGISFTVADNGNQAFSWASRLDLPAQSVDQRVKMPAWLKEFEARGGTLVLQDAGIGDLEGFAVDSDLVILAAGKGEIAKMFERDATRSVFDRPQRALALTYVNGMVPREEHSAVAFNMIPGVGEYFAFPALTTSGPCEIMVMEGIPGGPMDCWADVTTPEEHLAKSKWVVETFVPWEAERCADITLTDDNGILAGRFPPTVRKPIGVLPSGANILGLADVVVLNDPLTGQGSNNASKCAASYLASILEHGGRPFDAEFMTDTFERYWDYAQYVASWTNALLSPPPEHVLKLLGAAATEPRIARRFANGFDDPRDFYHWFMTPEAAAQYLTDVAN

[7] = substrate: Cc1cc2nc3c(=O)[nH]c(=O)nc-3n(C[C@H](O)[C@H](O)[C@H](O)COP(=O)(O)OP(=O)(O)OC[C@H]3O[C@@H](n4cnc5c(N)ncnc54)[C@H](O)[C@@H]3O)c2cc1C; experiment: NADH consumption, spectrophotometric, Michaelis-Menten fit; type: biochemical, Rhodococcus opacus; conditions: NADH in excess, 8 mM Tris-HCl pH 7.5, 30 °C, read at 320 nm, apparent constant
Description: (§1) NADH consumption, spectrophotometric, Michaelis-Menten fit on StyB-1CP (StyB from Rhodococcus opacus 1CP)

[8] = substrate: NC(=O)C1=CN([C@@H]2O[C@H](COP(=O)(O)OP(=O)(O)OC[C@H]3O[C@@H](n4cnc5c(N)ncnc54)[C@H](O)[C@@H]3O)[C@@H](O)[C@H]2O)C=CC1; experiment: as above; type: biochemical, Rhodococcus opacus; conditions: FAD in excess, 8 mM Tris-HCl pH 7.5, 30 °C, read at 320 nm, apparent constant
Description: as §1

[9] = target: the molecule itself; experiment: SEC; data not shown; StyB in the presence of the cofactor FAD; method taken from the section on quaternary structure (analytical gel filtration), not given
purified protein [10] = substrate: Cc1cc2nc3c(=O)[nH]c(=O)nc-3n(C[C@H](O)[C@H](O)[C@H](O)COP(=O)(O)OP(=O)(O)OC[C@H]3O[C@@H](n4cnc5c(N)ncnc54)[C@H](O)[C@@H]3O)c2cc1C; experiment: purified protein; type: biochemical, Pseudomonas fluorescens; conditions: NADH in excess, 8 mM Tris-HCl pH 7.5, 30 °C
purified protein [11] = substrate: NC(=O)C1=CN([C@@H]2O[C@H](COP(=O)(O)OP(=O)(O)OC[C@H]3O[C@@H](n4cnc5c(N)ncnc54)[C@H](O)[C@@H]3O)[C@@H](O)[C@H]2O)C=CC1; experiment: purified protein; type: biochemical, Pseudomonas fluorescens; conditions: FAD in excess, 8 mM Tris-HCl pH 7.5, 30 °C
[12] = target: the molecule itself; experiment: SEC; analytical gel filtration, Superdex 200 HR 10/30, 22°C, 10 mM Tris-HCl pH 7.2, 500 mM NaCl; oxidized holoenzyme, 12.7 µM FAD in buffer and sample
[13] = target: the molecule itself; experiment: SEC; analytical gel filtration, Superdex 200 HR 10/30, 22°C, 0.6 mL/min, 10 mM Tris-HCl pH 7.2, 500 mM NaCl; 100 µL of protein (1.95 mg/mL StyA1, 2.17 mg/mL StyA2B, 11.45 mg/mL StyA); apo-enzyme, no FAD

StyA2B self-sufficient styrene monooxygenase from Rhodococcus opacus 1CP (from UniProt C7ACG1 1-573) (enzyme)
stoichiometry N [1]: 2 | stoichiometry N [2]: 2 | stoichiometry N [3]: 2

StyA1 styrene monooxygenase from Rhodococcus opacus 1CP (from UniProt C7ACG0 1-406) (enzyme)
stoichiometry N [4]: 2 | stoichiometry N [5]: 2 | stoichiometry N [6]: 2

C=CSc1ccccc1 [phenyl vinyl sulfide]
HPLC of phenyl vinyl sulfoxide formed (StyA): All three SMO isoforms were found to convert this substrate

Cc1cc2nc3c(=O)[nH]c(=O)nc-3n(C[C@H](O)[C@H](O)[C@H](O)COP(=O)(O)OP(=O)(O)OC[C@H]3O[C@@H](n4cnc5c(N)ncnc54)[C@H](O)[C@@H]3O)c2cc1C [FAD]
analytical gel filtration, oligomer shift (StyA1): For holo-StyA1, the equilibrium shifted towards the dimeric form

B1: StyB flavin reductase from Rhodococcus opacus 1CP (enzyme, UniProt A0A076K0M4 1-177, looked up)
chain: MTRAAEAPPAPEVLSAPVEVAADSTQFRNSVALFATGIAVVTMQDGEGGVHGATINSFTSISLDPPTVMISLKPGYAHELISKSGWYGVSVLSKTQQEHSRYFCGTRDSDWHPQFVAGENVPTLFGSLARFECKVIDTITVNDHTLFLARVARCESEDGSPLMFFASTYHQPALGES
notes: StyB, FAD reductase of the styABCD cluster, Rhodococcus opacus 1CP, 178 amino acid residues, calculated mass 19,053 Da; also called StyB-1CP; source: E. coli BL21, purified (HisTrap FF IMAC), concentrated in the presence of 10 µM FAD
Km [7]: 108.3 ± 18.3 µM | kcat [7]: 32.9 ± 2.3 s⁻¹ | kcat/Km [7]: 304000 M⁻¹ s⁻¹ | Km [8]: 59.3 ± 4.2 µM | kcat [8]: 26.9 ± 0.6 s⁻¹ | kcat/Km [8]: 454000 M⁻¹ s⁻¹ | stoichiometry N [9]: 2

B2: StyB-ST (StyB from P. fluorescens ST) (Pseudomonas fluorescens) (protein)
chain: MTLKKDVAVDIDSTCFRQAVALFATGIAVLSAETEEGEVHGMTVNSFTSISLDPPTVMVSLKSGRMHELLTRGGRFGVSLLGESQKVFSAFFSKRVMDDTPSPAFTIQAGLPTLRDAMAWFECEVESTVQVHDHTLFIARVSACGTPEANAPQPLLFFASRYHGKPLPLN
notes: full length; E. coli BL21
Km (purified protein [10]): 2.6 ± 0.4 µM | kcat (purified protein [10]): 8.7 ± 0.3 s⁻¹ | kcat/Km (purified protein [10]): 3.35e+06 M⁻¹ s⁻¹ | Km (purified protein [11]): 18.9 ± 1.0 µM | kcat (purified protein [11]): 8.8 ± 0.1 s⁻¹ | kcat/Km (purified protein [11]): 466000 M⁻¹ s⁻¹

B3: StyA styrene monooxygenase from Rhodococcus opacus 1CP (styABCD cluster) (enzyme, UniProt A0A076JVU4 1-426, looked up)
chain: MSKRIAIVGAGTAGLHLGLYLNEKGIDATIFTDRRPEEYANIRLLNTVAHHSVTIDREDALGIDHWPNDGYFGHYYYVGIPGMPIRSYGDLAKPSRAVDYRILQPQLMRDFEERGGKIEYRPIRVEDLTVLSDDYDLVVIGTGKGGLGTLFARDEQSSPFTEPQRQLCVGIFKGIAPAETRAVTFCISPGAGEMIEIPTVTFSGDATALVFENHIGSDLEVLAHTRYEDDPRAFLDLMIEKLKQHYPITAERLDEKEFDVANSHLDILQGGVTPTVRHGHVKLDNGKLAVLLGDAHATVDPVLGQGGNMASYAAHVLGEEIAGNEVYDELFCERVDARRAGRVLGATRWTNFMLSNLKELPNHFVEFLGRVMMDRQLADRFTDNFNYPEKQWDIFSSPENMVAWIEANETGAEETERPFAQTGAQS
notes: StyA of the styABCD cluster, Rhodococcus opacus 1CP, 427 amino acid residues, calculated mass 46,580 Da; amplified from genomic DNA with printed primers that hold the start codon (NdeI CATATG) and the stop codon (TCA in the reverse primer); Apparent subunit mass 50 kDa including the His-tag (SDS-PAGE); also called holo-StyA; source: E. coli BL21, purified (HisTrap FF IMAC)
stoichiometry N [12]: 2 | stoichiometry N [13]: 2 and 4
